{
  "source": "paper doi:10.1101/2025.04.07.647595",
  "about": "“Real-time tracking of mRNP complex assembly reveals various mechanisms that synergistically enhance translation repression”",
  "molecular_target": "T1, Sxl-dRBD5 (UniProt P19339 122-305)",
  "T1 sequence": "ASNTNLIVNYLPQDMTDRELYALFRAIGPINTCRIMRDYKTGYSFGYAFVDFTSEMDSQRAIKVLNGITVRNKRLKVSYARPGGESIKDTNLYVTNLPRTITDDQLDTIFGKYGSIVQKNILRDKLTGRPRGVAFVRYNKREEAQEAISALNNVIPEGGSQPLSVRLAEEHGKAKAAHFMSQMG",
  "assay": "NMR; BMRB 52948; C-terminal helix forms on RNA binding; FP: 10 mM Tris/HCl pH 7.5, 20 mM KCl, 25 mM NaCl, 0.005% NP-40; ITC: 50 mM Tris/HCl pH 7.5, 50 or 150 mM KCl, 298 K; smFRET: 50 mM salt at 21 C, or 150 mM at 29 C for Hrp48 assays",
  "conditions": "protein: recombinant; tags: His6-Trx-TEV removed",
  "data": [
    {"binder": "UUUUUUUUUU (ssRNA)", "note": "[U10-mer RNA]", "values": [
      {"measurement": "binding result", "value": "binds"}
    ]}
  ]
}
